In US20260210939A1, “MODIFIED OLFACTORY RECEPTORS” (GIVAUDAN SA, priority 2022, published 2026):
Like-named read-outs stand apart in the source and are kept apart here.

Assays:
[1] = biological target: T1, OR2T4 (Homo sapiens, UniProt Q8NH00, D328E/G331D/M330K); details: for ligand identification in sulfur odorant screen: OR2T4 with optimized C-terminus SEQ ID NO: 86; for % of the activation by the optimized sequence RNKEVKDALKRLLKRKCC: OR2T4 variant
T1 sequence (Q8NH00 with tags, fused parts or gaps D328E/M330K/G331D): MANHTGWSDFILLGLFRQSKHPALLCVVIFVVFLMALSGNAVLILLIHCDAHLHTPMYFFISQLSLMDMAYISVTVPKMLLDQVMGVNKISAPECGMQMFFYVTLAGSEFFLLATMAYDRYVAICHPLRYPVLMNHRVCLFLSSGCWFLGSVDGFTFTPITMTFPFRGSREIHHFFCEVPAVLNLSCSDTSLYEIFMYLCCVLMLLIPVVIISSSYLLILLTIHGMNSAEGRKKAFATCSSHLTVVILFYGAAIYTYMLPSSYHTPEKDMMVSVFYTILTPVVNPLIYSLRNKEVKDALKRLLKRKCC

[2] = biological target: T2, OR5B12 (Homo sapiens, UniProt Q96R08, C141R); assay: CRE-luciferase assay, HEK293T cells expressing OR5B12 (wild-type / modified C-terminus); format: cell-based; details: OR5B12 variant
T2 construct: Improved functional expression of modified OR-genes containing the truncated, optimized C-terminus; expressed in transfected cells; host or cells: HEK293T stably expressing human RTP1S(V227I) and RTP2(L220R)
T2 sequence (Q96R08 with tags, fused parts or gaps C141R): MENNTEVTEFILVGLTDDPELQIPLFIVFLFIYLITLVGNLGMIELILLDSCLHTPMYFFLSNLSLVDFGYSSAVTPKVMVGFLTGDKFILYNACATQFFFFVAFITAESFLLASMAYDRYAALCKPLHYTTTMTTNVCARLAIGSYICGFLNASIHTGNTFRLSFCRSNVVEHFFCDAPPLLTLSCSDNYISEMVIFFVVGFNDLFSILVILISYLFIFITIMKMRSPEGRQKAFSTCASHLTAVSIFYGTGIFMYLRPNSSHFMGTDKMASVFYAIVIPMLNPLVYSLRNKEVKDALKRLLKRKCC

[3] = biological target: T3, OR7C1 (Homo sapiens, UniProt O76099, D296E/G302K/M297V/R299D/T295K/V126I); assay: CRE-luciferase assay, HEK293T cells expressing OR7C1 (wild-type / modified C-terminus); format: cell-based; details: OR7C1 variant, 1 μM Ambermax
T3 construct: Improved functional expression of modified OR-genes containing the truncated, optimized C-terminus; expressed in transfected cells; host or cells: HEK293T stably expressing human RTP1S(V227I) and RTP2(L220R)
T3 sequence (O76099 with tags, fused parts or gaps V126I/T295K/D296E/M297V/R299D/G302K): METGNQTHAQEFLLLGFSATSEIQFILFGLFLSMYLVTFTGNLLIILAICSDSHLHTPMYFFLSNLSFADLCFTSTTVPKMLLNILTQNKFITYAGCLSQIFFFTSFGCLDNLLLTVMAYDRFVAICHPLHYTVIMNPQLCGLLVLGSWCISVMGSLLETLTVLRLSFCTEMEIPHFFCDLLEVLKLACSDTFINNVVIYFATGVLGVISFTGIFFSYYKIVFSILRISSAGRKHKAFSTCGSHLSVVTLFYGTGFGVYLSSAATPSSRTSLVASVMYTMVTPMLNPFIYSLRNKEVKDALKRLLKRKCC
Description: To test for possible variants of the sequence […]CC (SEQ ID NO: 86) leading to similar improved functional expression, different point mutations were introduced into the first 16 amino acids of this sequence (corresponding to […], SEQ ID NO: 10) and the variants were fused after the TM7 with OR7C1. […] The test concentrations were selected to fall into the range of partial activity of the wild-type sequence.

[4] = 10 μM Cyclopentanethiol, 30 μM copper
[5] = 31 μM Cyclopentanethiol, 30 μM copper
[6] = 4 μM 2-methyl-3-tetrahydrofuranethiol
[7] = 8 μM 2-methyl-3-tetrahydrofuranethiol

ligand identification in sulfur odorant screen [1]	% of the activation by the optimized sequence RNKEVKDALKRLLKRKCC ([2]; 31 μM Hedione HC) [%]	% of the activation by the optimized sequence RNKEVKDALKRLLKRKCC ([2]; 62.5 μM Hedione HC) [%]	% of the activation by the optimized sequence RNKEVKDALKRLLKRKCC [1, 4] [%]	% of the activation by the optimized sequence RNKEVKDALKRLLKRKCC [1, 5] [%]	% of the activation by the optimized sequence RNKEVKDALKRLLKRKCC [3] [%]	% of the activation by the optimized sequence RNKEVKDALKRLLKRKCC [1, 6] [%]	% of the activation by the optimized sequence RNKEVKDALKRLLKRKCC [1, 7] [%]	Molecule
good ligands								CC1OCCC1S (centres unmarked) [2-methyl-3-tetrahydrofuranthiol, reference compound]
good ligands								CCCSSCCC [dipropyl disulfide, reference compound]
	0	0	25.3	25.2	89.5			SEQ ID NO: 10 (RNKEVKDALKRLLKRK; source 1..16: note = C-terminal domain sequence)
	317.8	195.1			262.4	108.8	116.6	SEQ ID NO: 114 (RNKEVKRAIKRLLKRKCC; source 1..18: note = C-terminal domain sequence)
	349.2	242.5				103.1	115.2	SEQ ID NO: 115 (RNKEVKKAIKRLLKRKCC; source 1..18: note = C-terminal domain sequence)
	433.2	303.9			393.9	63.3	77.0	SEQ ID NO: 116 (RNKEVKRAIKRLFKRKCC; source 1..18: note = C-terminal domain sequence)
	126.2	136.1			288.9	80.6	98.4	SEQ ID NO: 118 (RNKEVKRAIRKLLKRKCC; source 1..18: note = C-terminal domain sequence)
	342.8	242.1			346.4	139.9	150.6	SEQ ID NO: 121 (RNKEVKRAIKRLLKRKCR; source 1..18: note = C-terminal domain sequence)
	331.3	222.3			258.8	97.3	102.0	SEQ ID NO: 122 (RNKEVKKAIKRLLKRKCR; source 1..18: note = C-terminal domain sequence)
					188.9	101.4	110.0	SEQ ID NO: 133 (RNKEVKDALKRLLKRKCRR; source 1..19: note = C-terminal domain sequence)
	298.48	274.09						SEQ ID NO: 141 (RNKEVKDALKRLLKRKCCY; source 1..19: note = C-terminal domain sequence)
	142.62	129.19						SEQ ID NO: 142 (RNKEVKDALKRLLKRKCCH; source 1..19: note = C-terminal domain sequence)
	137.13	91.94						SEQ ID NO: 143 (RNKEVKDALKRLLKRKCCN; source 1..19: note = C-terminal domain sequence)
	86.54	56.54						SEQ ID NO: 144 (RNKEVKDALKRLLKRKCCD; source 1..19: note = C-terminal domain sequence)
	280.71	237.30						SEQ ID NO: 145 (RNKEVKDALKRLLKRKCCK; source 1..19: note = C-terminal domain sequence)
	619.88	248.52						SEQ ID NO: 146 (RNKEVKDALKRLLKRKCCR; source 1..19: note = C-terminal domain sequence)
	394.57	300.08						SEQ ID NO: 147 (RNKEVKDALKRLLKRKCCG; source 1..19: note = C-terminal domain sequence)
	181.2	189.0						SEQ ID NO: 148: printed for RNKEVKDALKRLLKRKCRR in Table 6
	254.8	231.7			265.3	108.0	135.7	SEQ ID NO: 149 (RNKEVKDALKRLLKRKCRRR; source 1..20: note = C-terminal domain sequence)
	182.3	145.7			196.0	94.8	96.5	SEQ ID NO: 150 (RNKEVKDALKRLLKRKCRKK; source 1..20: note = C-terminal domain sequence)
	240.6	229.5						SEQ ID NO: 151 (RNKEVKDALKRLLKRKCCRR; source 1..20: note = C-terminal domain sequence)
	0	0	37.7	63.5	137.7			SEQ ID NO: 198 (RNKEVKDALKRLLKRKC; source 1..17: note = C-terminal domain sequence)
	244.3	239.6						SEQ ID NO: 219 (RNKEVKDALKRLLKRKCCRRRR; source 1..22: note = C-terminal domain sequence)
	1092.9	922.2				76.6	61.9	SEQ ID NO: 220 (RNKEVKKAIKRLLKRKCCRRR; source 1..21: note = C-terminal domain sequence)
	1032.2	676.0			498.6	103.1	130.4	SEQ ID NO: 221 (RNKEVKKAIKRLFKRKCCRRR; source 1..21: note = C-terminal domain sequence)
